Reference: publication PMC3999280

Columns and labels:
[1] = target: LdtRLas (LdtR from 'Candidatus Liberibacter asiaticus', […]_01180) ('Candidatus Liberibacter asiaticus' str. psy62); assay: SEC
[2] = target: LdtRLas ('Candidatus Liberibacter asiaticus') (UniProt A0ABN4AZS1); assay: EMSA; settings: EMSA: 50 mM Tris-HCl pH 7.2, 150 mM KCl, 10 mM MgCl2, 0.01% Triton X-100, 12.5 ng/uL each poly(dI-dC) and poly(dA-dT), 1 ng probe in 20 uL, 20 min at 37 C; 6% …

Substance | stoichiometry N [1] | K half [2] [nM]
LdtRLas (LdtR from 'Candidatus Liberibacter asiaticus', […]_01180) (natural protein) | 2 | –
PldtP (PldtPLas) | – | 100
